Reference: patent US20200362047A1 (CRESCENDO BIOLOGICS, published 2020)

What was measured:
[1] = target: T1, CD137 on pre-stimulated human CD8+ T cells (human, UniProt Q07011 24-255); test: flow cytometry, PMA/ionomycin-stimulated human CD8+ T cells, mean of 2-3 donors
T1 construct: also called pre-stimulated CD8+ cells; primary T cells
Experimental: Binding to primary T cells was measured using flow cytometry. Peripheral blood mononuclear cells (PBMCs) were isolated from human blood by density gradient centrifugation then CD8+ T cells purified using a negative selection isolation kit according to the manufacturer's protocol (Miltenyi Biotech cat no 130-042-401). T-cells were stimulated PMA/Ionomycin for 48-72 hours in RPMI media supplemented with 10% FBS, 2 mM Glutamine, 1× Pen/Strep. Cells were transferred into 96 well plates, blocked for 10 mins with staining buffer (PBS/1% BSA/0.05% Sodium Azide) then incubated with serially diluted VH in staining buffer (PBS/1% BSA) for 30 mins-1 hour at 4° C. Cells were washed by centrifugation then VH binding detected using Anti His antibody (Millipore 05-949) and Goat Anti Mouse Alexa Fluor-488 (Jackson ImmunoResearch cat no. 115-545-071). A Live Dead near IR stain (Molecular Probes cat no. L10119) was used for discrimination of live cells. After further washing cells were fixed and fluorescence measured by flow cytometry.

[2] = target: T2, rhesus CD137Fc recombinant protein (Sino Biologicals cat no. 90847-K02H) (rhesus; human, UniProt H9Z8K9 24-186); test: HTRF binding assay
T2 construct: Bought protein; also called rhesus CD137-human IgG1 Fc tagged protein; not shown: human IgG1 Fc tag
T2 sequence: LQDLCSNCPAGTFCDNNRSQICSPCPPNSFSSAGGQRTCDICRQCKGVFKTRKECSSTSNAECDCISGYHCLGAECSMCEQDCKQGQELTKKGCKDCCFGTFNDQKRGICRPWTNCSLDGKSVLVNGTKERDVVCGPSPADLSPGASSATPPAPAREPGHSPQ
Experimental: Binding to human CD137Fc recombinant protein (Acro Biosystems 41B-H5258), rhesus CD137Fc recombinant protein (Sino Biologicals cat no. 90847-K02H) and mouse CD137Fc protein (Acro Biosystems 41B-M5258) was measured using an HTRF Binding assay format. All reagents and serially diluted VH were prepared in assay buffer containing PBS, 0.1% BSA and 0.4M Potassium Fluoride. Samples or assay buffer (non-specific binding) were incubated with 0.5 nM human, rhesus or mouse CD137, 1 nM Anti human-Fc Cryptate PAb (Cisbio cat. no. 61HFCKLB) and 20 nM anti His-D2 (CisBio cat no 61HISDLA) in black 384-shallow well assay plates for a minimum of 3 hours at room temperature. Time-resolved fluorescent emission at 620 nm and 665 nm was measured following excitation at 337 nm on the BMG PHERAstar plate reader. The HTRF ratio were calculated ((665 nm emission/620 nm emission)*10000) and the data corrected for (non-specific binding) to give the specific binding signal. VH bound to human and rhesus CD137 but not to mouse CD137 protein.

[3] = target: T3, human CD137 expressed on the surface of CHO cells (human, UniProt Q07011 24-255); test: FMAT, CHO human CD137 cells
T3 construct: Also used for the Jurkat reporter cells that express human CD137 (functional rows); also called CHO human CD137 cells; CHO huCD137
Experimental: Binding of His-tagged molecules to CHO human CD137, CHO parent, CHO human PSMA, DU145 PSMA and DU145 parent cells was assessed using Fluorescence Microvolume Assay Technology (FMAT). All reagents were prepared in FMAT assay buffer (pH 7.4) containing PBS, 0.1% Bovine Serum Albumin, 0.05% Sodium Azide. Serially diluted samples were transferred into 384 well black clear-bottomed assay plates (Costar cat. no. 3655) and incubated for a minimum of 2 hours at room temperature with 1.5 nM Anti-His (Millipore cat. no. 05-949), […] Goat Anti-Mouse Alexa Fluor-488 (Jackson ImmunoResearch cat. no. 115-545-071) and 2000 cells/well pre-stained with DRAQ5 (Thermo Scientific cat. no. 62251). Fluorescence emission was then measured on the TTP Mirrorball plate reader in the FL2 (502 nm-537 nm) and FL5 (677-800 nm) channels following excitation at 488 nm and 640 nm. Data was gated on FL5 perimeter and peak intensity and the FL2 median mean fluorescence intensity of the gated data used for determination of VH binding. Monovalent CD137 specific Humabody® VH, bispecific and trispecific molecules with a CD137 binding arm bound to CHO CD137 expressing cells. Monovalent PSMA specific Humabody® VH, bispecific and trispecific molecules with a PSMA binding arm bound to PSMA expressing cells.

[4] = target: T4, human CD137-human Fc chimeric protein (Acro Biosystems cat no. 41B-H5258) (human, UniProt Q07011 24-186); test: BLI (Octet RED384), CD137-Fc amine-coupled to AR2G sensors, 1:1 model
T4 construct: Bought protein; The Octet Protein G and Biacore experiments name no catalogue number; also called human CD137Fc recombinant protein; human CD137-Fc recombinant protein; not shown: human IgG1 Fc tag
Experimental: The kinetics of monovalent and bispecific Humabody VH were determined on a ForteBio Octet RED 384 instrument. To study the interaction with the antigens, CD137-Fc tag protein (Acro Biosystems cat no. 41B-H5258) or PSMA-his (R&D Systems cat no. 4234-ZN) was immobilised onto AR2G biosensors (ForteBio cat no. 18-5082) by amine coupling. Monovalent VH and bispecific molecules were serially diluted (typically 1:2 dilution series starting between 12-25 nM, at the highest concentration) in kinetics buffer (0.1% BSA, 0.02% Tween, 1×PBS) and binding to the immobilised proteins was studied during the association and dissociation phases. PSMA binding was measured using 180 seconds association and 600 seconds dissociation phases. CD137 binding was measured 180 seconds association and 600 seconds dissociation phases. Reference subtracted data were fitted to a 1:1 binding model using the ForteBio Octet Data Analysis software.

T1 sequence (Q07011 24-255 limits assumed): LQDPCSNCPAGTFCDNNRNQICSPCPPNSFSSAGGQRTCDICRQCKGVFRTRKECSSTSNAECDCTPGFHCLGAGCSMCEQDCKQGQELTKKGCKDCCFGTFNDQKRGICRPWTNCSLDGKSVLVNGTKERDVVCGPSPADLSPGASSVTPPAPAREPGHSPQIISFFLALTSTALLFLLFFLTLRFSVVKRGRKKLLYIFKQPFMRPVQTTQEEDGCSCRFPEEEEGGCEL
T3 sequence (Q07011 24-255 limits assumed): as above

B1: Humabody VH 1.18 (VHH)
VH: EVQLVESGGGLVQPGGSLRLSCAASGFTFSTHWMNWARQAPGKELEWVANINQDGSEKYYVDSVEGRFTISRDNANNSLYLQMNSLRAEDTAVYYCARGGVGYGDSHFGMDVWGLGTTVTVSSHHHHHH
notes: human single VH domain
Work on B1 yielded an EC50 [1] of 1.9 nM, an EC50 [2] of 5.1 nM and an EC50 [3] of 0.31 nM.

B2: Humabody VH 1.1 (VHH)
VH: EVQLVESGGGLVQPGGSLRLSCAASGFTFSSHWMTWFRQAPGKGLEWVAHIKEDGSEKYYEDSVEGRFTVSRDNAKNSVYLQMNSLRAEDTAVYYCARGGDGYSDSHFGVDVWGQGTTVTVSSHHHHHH
notes: human single VH domain; also called single domain antibody 1.1
In the case of B2, the Kd [4] is reported as 0.52 nM, the koff [4] is reported as 0.00036 s⁻¹ and the kon [4] is reported as 710000 M⁻¹ s⁻¹. For the same binder, the EC50 [1] was 0.22 nM, the EC50 [2] was 1.1 nM and the EC50 [3] was 0.22 nM.

B3: Humabody VH 1.11 (VHH)
VH: EVQLVESGGGLVQPGGSLRLSCEASGFTFSDYWMNWARQAPGKGLEWVANIKEDGSEKYYVDSVEGRFTISRDNAKNSTYLQMNSLRAEDTAVYYCARGGAGYSMSHYGMDVWGQGTTVTVSSHHHHHH
notes: human single VH domain
For B3, the EC50 [1] was 0.89 nM, the EC50 [2] was 6.8 nM and the EC50 [3] was 0.27 nM.

B4: Humabody VH 1.78 (VHH)
VH: QVQLVESGGGLVQPGGSLRLSCAATGFTLSNYWMNWVRQAPGKGLEWVANINQDGSERYYVDSVKGRFTISRDNAKNSLYLQMSSLRAEDTAVYFCARGGEGYGVDHYGLDVSGQGTTVTVSSHHHHHH
notes: human single VH domain
B4 showed an EC50 [1] of 0.61 nM, an EC50 [2] of 0.14 nM and an EC50 [3] of 0.32 nM.

B5: Humabody VH 1.52 (VHH)
VH: EVQLVESGGGLVQIGGSLRLSCAASGFTFSKYWMIWVRQAPEKGLEWVANINQDGSEKYYVDSVEGRFTISRDNANNSLFLQMNSLRAEDTAVYYCARGGDDYSISHFGMDVSGQGTRVTVSSHHHHHH
notes: human single VH domain
Binder B5 has an EC50 [1] of 0.88 nM, an EC50 [2] of 0.45 nM and an EC50 [3] of 0.37 nM.

B6: Humabody VH 2.1 (VHH)
VH: EVQLVESGGGLVKPGGSLRVSCAASGFTFSDYYMSWFRQAPGKGLEWVSYISGSGDIIDYADSVKGRFTISRDNAKNSLYLQMNNLRAEDTAVYHCAREDSRLTGTTDFDNWGQGTLVTVSSHHHHHH
notes: human single VH domain
With B6 the Kd [4] was 6.7 nM, the koff [4] was 0.0052 s⁻¹ and the kon [4] was 770000 M⁻¹ s⁻¹. It also gave an EC50 [1] of 2.4 nM and an EC50 [3] of 0.65 nM.

B7: Humabody VH 2.8 (VHH)
VH: EVQLVESGGGLVKPGGSLRLSCAASGFAFSDYYMSWFRQAPGKGLEWVSHISGSGTTIDYADSVKGRFTISRDNAKNSLYLQMNSLRAEDTAVYHCAREDSRMPGTTDFDNWGQGTLVTVSSHHHHHH
notes: human single VH domain
B7 showed an EC50 [1] of 6.5 nM, an EC50 [2] of 1.6 nM and an EC50 [3] of 0.19 nM.

B8: Humabody VH 2.14 (VHH)
VH: EVQLVESGGGLVKPGGSLRLSCAASGFTFSDYYMTWFRQAPGKGLEWISYISGSGDTIDYAESVKGRFTISRDNAKNSLYLQMNSLRAEDTAVYYCAREDIRMPGTTDFDHWGQGTLVTVSSHHHHHH
notes: human single VH domain
B8 showed an EC50 [1] of 0.61 nM, an EC50 [2] of 1.3 nM and an EC50 [3] of 0.31 nM.

B9: Humabody VH 2.9 (VHH)
VH: EVQLVESGGGLVKPGGSLRLSCAASGFTFSDYYMTWFRQAPGKGLEWISYISGSGDTIDYAESVKGRFTISRDNAKNSLYLQMNSLRAEDTAVYHCAREDSRIAGTTDFDNWGPGTLVTVSSHHHHHH
notes: human single VH domain
Binder B9 has an EC50 [1] of 0.6 nM, an EC50 [2] of 1.2 nM and an EC50 [3] of 0.18 nM.
